Reference: patent publication US20250000991A1, “NECTIN-4 ANTIBODIES AND ANTIBODY-DRUG CONJUGATES” (Eli Lilly and Company, priority 2023, published 2025)

Key:
[1] = test system: UM-UC-3 Nectin4 clone F7 xenograft; test: Tumor xenograft, high nectin-4 expression; assay type: in vivo, mice (nu/nu); conditions: UMUC3 Nectin-4 clone F7 xenograft, single dose 2 mg/kg, day 40
Method: In order to test the efficacy of the nectin-4 ADCs of the present disclosure, which have effector null mutations in the Fc region, and to compare to the enfortumab antibody, which has wildtype Fc and in an ADC with the same payload background as the ones of this disclosure, two tumor xenograft models with either high or moderate nectin-4 expression were tested as described. Immune compromised female mice (nu/nu) between 5-8 weeks of age with weight 18-20 grams were implanted unilaterally on the right flank with UM-UC-3 Nectin4 clone F7 cells with high nectin-4 expression. […] The test articles were given at a single dose (2 mg/kg) formulated with 5% dextrose. Tumors were measured biweekly until Day 40.

[2] = test system: MDA-MB-468 xenograft; test: Tumor xenograft, moderate nectin-4 expression; assay type: in vivo, NSG mice; conditions: MDAMB468 xenograft, single dose 2 mg/kg, day 71
Method: In a separate study, female NSG mice between 5-6 weeks of age were injected subcutaneously with MDA-MB-468 cells with moderate Nectin-4 expression. When tumors reached approximately 150-250 mm^3; animals were matched by tumor volume into treatment or control groups and dosing initiated (Day 0, n=8 per group). The test articles were given at a single dose (2 mg/kg) formulated with 5% Dextrose. Tumors were measured biweekly until Day 71.
In both models, a 2 mg/kg single dose treatment of either the nectin-4 ADCs (exemplified herein with each of Abs1-8 conjugated as in Formula XI, and with a DAR of 8) or benchmark enfortumab ADC (enfortumab conjugated with Formula XI, and with a DAR of 8) was used. Tumor growth was measured at day 40 for UMUC3 Nectin-4 clone F7 and day 71 for MDAMB468 xenografts.

B1: Ab1a ADC: Ab1a conjugated as in Formula XI, and with a DAR of 8 (conjugate)
heavy: QVQLVQSGAQVKKPGASVKVSCKASGYTFTGYYIHWVRQAPGQGLEWMGWINPNSGGTNYAQKFQGRVTMTRDTSISTAYMELSRLRSDDTAVYFCAREDWDFDYWGQGTLVTVSSASTKGPSVFPLAPSSKSTSGGTAALGCLVKDYFPEPVTVSWNSGALTSGVHTFPAVLQSSGLYSLSSVVTVPSSSLGTQTYICNVNHKPSNTKVDKRVEPKSCDKTHTCPPCPAPEAAGGPSVFLFPPKPKDTLMISRTPEVTCVVVSVSHEDPEVKFNWYVDGVEVHNAKTKPREEQYNSTYRVVSVLTVLHQDWLNGKEYKCKVSNKALPAPIEKTISKAKGQPREPQVYTLPPSREEMTKNQVSLTCLVKGFYPSDIAVEWESNGQPENNYKTTPPVLDSDGSFFLYSKLTVDKSRWQQGNVFSCSVMHEALHNHYTQKSLSLSPGK
light: EIVLTQSPGTLSLSPGERATLSCRTSQSVSSSYLAWYQQKPGQAPRLLIYGASNRATDIPDRFSGSGSGTDFTLTINRLEPEDFAVYYCQQYGSSPITFGQGTRLEIKRTVAAPSVFIFPPSDEQLKSGTASVVCLLNNFYPREAKVQWKVDNALQSGNSQESVTEQDSKDSTYSLSSTLTLSKADYEKHKVYACEVTHQGLSSPVTKSFNRGEC
Question: For B1, which Mean tumor volume [1] is on record?
Answer: 234.79 mm^3

Question: And the Mean tumor volume [2]?
Answer: 135.24 mm^3

B2: Ab3 ADC: Ab3 conjugated as in Formula XI, and with a DAR of 8 (conjugate)
heavy: EVQLVESGGGLVKPGGSLRLSCAASGFNLNHYNMNWVRQAPGKGLEWVSSVSSGGGFRYYADSVRGRFTISRDNAKNSLYLQMNSLRAEDTAVYYCARGAVFHDAFDIWGQGTLVTVSSASTKGPSVFPLAPSSKSTSGGTAALGCLVKDYFPEPVTVSWNSGALTSGVHTFPAVLQSSGLYSLSSVVTVPSSSLGTQTYICNVNHKPSNTKVDKRVEPKSCDKTHTCPPCPAPEAAGGPSVFLFPPKPKDTLMISRTPEVTCVVVSVSHEDPEVKFNWYVDGVEVHNAKTKPREEQYNSTYRVVSVLTVLHQDWLNGKEYKCKVSNKALPAPIEKTISKAKGQPREPQVYTLPPSREEMTKNQVSLTCLVKGFYPSDIAVEWESNGQPENNYKTTPPVLDSDGSFFLYSKLTVDKSRWQQGNVFSCSVMHEALHNHYTQKSLSLSPGK
light: DIQLTQSPSFLSASVGDRVTITCRASQDISSYLAWYQQKPGKAPKLLIYVASTLQSGVPSRFSGSGSGTEFTLTISSLQPEDFATYYCQQINSYPFTFGQGTKVEIKRTVAAPSVFIFPPSDEQLKSGTASVVCLLNNFYPREAKVQWKVDNALQSGNSQESVTEQDSKDSTYSLSSTLTLSKADYEKHKVYACEVTHQGLSSPVTKSFNRGEC
Question: Which Mean tumor volume [1] does the source give for B2 here?
Answer: 993.45 mm^3

Question: And the Mean tumor volume [2]?
Answer: 366.45 mm^3

B3: Ab4 ADC: Ab4 conjugated as in Formula XI, and with a DAR of 8 (conjugate)
heavy: QVQLQESGPGLVKPSETLSLTCTVSGGSISGYYWSWIRQPPGKGLEWIGYIYYSGSTNYNPSLKSRVTISVDTSKNQFSLKLSSVTAADTAVYYCARLGIFFDAFDIWGQGTLVTVSSASTKGPSVFPLAPSSKSTSGGTAALGCLVKDYFPEPVTVSWNSGALTSGVHTFPAVLQSSGLYSLSSVVTVPSSSLGTQTYICNVNHKPSNTKVDKRVEPKSCDKTHTCPPCPAPEAAGGPSVFLFPPKPKDTLMISRTPEVTCVVVSVSHEDPEVKFNWYVDGVEVHNAKTKPREEQYNSTYRVVSVLTVLHQDWLNGKEYKCKVSNKALPAPIEKTISKAKGQPREPQVYTLPPSREEMTKNQVSLTCLVKGFYPSDIAVEWESNGQPENNYKTTPPVLDSDGSFFLYSKLTVDKSRWQQGNVFSCSVMHEALHNHYTQKSLSLSPGK
light: DIQLTQSPSFLSASVGDRVTITCRASQGISSYLAWYQQKPGKAPKLLIYAASTLQSGVPSRFSGSGSGTEFTLTISSLQPEDFATYYCQQFNSYPWTFGQGTKVEIKRTVAAPSVFIFPPSDEQLKSGTASVVCLLNNFYPREAKVQWKVDNALQSGNSQESVTEQDSKDSTYSLSSTLTLSKADYEKHKVYACEVTHQGLSSPVTKSFNRGEC
Question: How did the Mean tumor volume [1] turn out when B3 was run?
Answer: 928.09 mm^3

Question: What about the Mean tumor volume [2] of the same molecule?
Answer: 343.65 mm^3
